Experimental data published in PMC3518043 (Biochemistry, 2012).
Blank lines part the entries; values can stand above or below the binder they belong to. Ends that are not written are not given here.

What was measured:
[1] = target: CHD5 PHD1 finger (338-393), GST tag cleaved (UniProt Q8TDI0 338-393); test: SPR
[2] = target: CHD5 PHD2 finger (413-468), GST tag cleaved (UniProt Q8TDI0 413-468); test: SPR
[3] = target: CHD5 tandem PHD1-2 (338-468), GST tag cleaved (UniProt Q8TDI0 338-468); test: SPR
Chain of CHD5 tandem PHD1-2 (338-468), GST tag cleaved (Q8TDI0 338-468): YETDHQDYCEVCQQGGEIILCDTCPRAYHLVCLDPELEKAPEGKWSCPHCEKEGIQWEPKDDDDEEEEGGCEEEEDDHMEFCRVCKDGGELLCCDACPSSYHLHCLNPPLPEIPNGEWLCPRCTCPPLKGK

[4] = target: CHD5 tandem PHD1-2 as used in the ALPHA (UniProt Q8TDI0 338-468); test: AlphaScreen or HTRF
Chain of CHD5 tandem PHD1-2 as used in the ALPHA (Q8TDI0 338-468): as above

Chain of CHD5 PHD2 finger (413-468), GST tag cleaved (Q8TDI0 413-468): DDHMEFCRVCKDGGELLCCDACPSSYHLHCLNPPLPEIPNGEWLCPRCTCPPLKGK
Chain of CHD5 PHD1 finger (338-393), GST tag cleaved (Q8TDI0 338-393): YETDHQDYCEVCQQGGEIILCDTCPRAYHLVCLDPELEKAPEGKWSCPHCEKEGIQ

Kd [1]: 98.8 µM
koff [1]: 0.0103 ± 0.0001 s⁻¹
kon [1]: 104 ± 7 M⁻¹ s⁻¹
Kd [2]: 34.6 µM
koff [2]: 0.0136 ± 0.0003 s⁻¹
kon [2]: 393 ± 13 M⁻¹ s⁻¹
Kd [3]: 9.18 µM
koff [3]: 0.00348 s⁻¹
kon [3]: 379 ± 7 M⁻¹ s⁻¹
B1: Histone H3 peptide (1-11) with C-terminal biotin (peptide, UniProt P68431 2-12, looked up)
peptide: ARTKQTARKST-biotin

binding result [4]: binds
B2: Histone H3 peptide (1-11) with C-terminal 6x-histidine (peptide, UniProt P68431 2-12, looked up)
peptide: ARTKQTARKST
